This data set in a line: label from the status in PepcDB records.
Take “MSTETAEKPGETTPESHVFEADVARLLHMMVHSVYSDKDVFLRELVSNAADACEKLRYEAITTPGLLTSDPDPRIQLRLDADNRQLILEDNGIGMSRAELIEALGTIARSGTRAFMERIEASKADAAKTGEDAQLIGQFGVGFYSCFMVADKVDVVTRRAGETQAWIWSSDGKGSYSISEIDAESAPARGTRITLHLMEDAKDYATRARVERIVKQQSGHVPVAITLVEKPGDEPTRITEGTALWTRPKSEISSEDYADFYRGIAGQYDEPALTVHFRAEGRHEYTALAFVPGTPPFDLFDPDRKGRIKLYVKRVFITDDAELLPRYLRFVRGLVDTADLPLNVSREMIQESPILSAIRKGVTNRILTSVEKLAQNEPETYKTLWENFGAVLKEGLYEDFERRSQLLGLTRFRTTTSGDDQRSLADYLKDLKPEQDSIYYLAGSNIEQLRASPQLEGFRARGIEVLLLSDQIDSFWVMNAPEFEGKTFKSVSQGAADLAKFAKADAGADSDQDSNDQAKADIAGFLALAKEQLKDQVADVRASDRLTESPVCLVAPESGYDRQLEKILAGAGQLASTSKPVLELNADHVLVKAMAGAQHTPALQNDAIHLLYDQARILDGEKPADARAFAERMGRLLEKALRA”: the protein production entry is “failed”.

With “MSTFQQPDPRDRPARLTVGVVGAGRVGPALAASLQLAGHRPVAVSGVSDTSVRRAAAMLPDVPLVTPAQVLERADLVLLTVPDDALPGLVEGLAETGAVRPGQLLVHTSGRYGTKVLDPARSAGALPLALHPAMTFTGTAVDVQRLAGCSFGVTAPDELRLAAEALVIEMGGEPEWIAEENRPLYHAALALGANHLVTLVAESMELLRTAGVEAPDHMLGPLLGAALDNALRSGDGALTGPVARGDAGTVAAHVAELRKHAPGTVPGYLAMARATADRALAHGLLKPELAEDLLGVLANGTEGDAG”, the protein production entry was “failed”.

In the case of “MSTIEERTPGAVATEPVGHEGARVSINEKNVWSLGAGPAAFALLAMIVLMIASGVFFAQSINTLENDGGGTLAVTGLIASIVVFTVALVVTITSVKVVSPGHTLTVQFFGRYIGTLRRTGLSFVPPLSVTKKVSVRVRNFETNEAKVNDYNGNPINIAAIIVWQVADTAQASFSVEDFEEFLHQQAESALRHVATQHPYDSPVDGRVSLRGATDEVSEELADEVAQRAAVAGLEIVEARISSLSYAPEIAQAMLQRQQASAIVDAREKIVEGAVTMVETALDQLEQREIVDLDPERRAAMVSNLLVVLCSDTNAQPIVNAGSLYQ”, the protein production result is on record as “failed”.

Regarding “MSTKLYYIYDPMCSWCWGYRPVWDLLQQHLPKSIDVEYVAGGLAPDSDSAMPIDQQQMIQNHWRTIEQKLGTKFNYDFWRENTARRSTYNACRAAIAAHKQSCQKAMIDAIQQAYYLRALNPSDVDVLVSVAKELSEQTSPTLDVAQFIVDINSSETNKELAKQVTLARELTQQGFPSLVLDVDGVIQQIPLDYSDYKTTLAYIIKKTS”, the protein production entry is “failed”.

On to “MSTKTMKEKAVELLQKCEVVTLASVNKEGYPRPVPMSKIAAEGISTIWMSTGADSLKTIDFLSNPKAGLCFQEKGDSVALMGEVEVVTDEKLKQELWQDWFIEHFPGGPTDPGYVLLKFTANHATYWIEGTFIHKKLD”, for which the protein production result is “not failed”.

“MSTLQTPGATLYSFRRCPYAMRARLALRYAGVPMRIVEVSLKAKPAEMLALSAKGTVPVLALEDRVIDESLEIMHWALAQHDPEDWRLTADPTAQAQMAALIAENDQVFKVHLNRYKYAERYPEAPMEHYRAQGEAFLARLDSLLQQRRYLLAEHPSLADMALLPFVRQFAHVDREWFAQTPYRSLQEWLQERLASELFLAVMAKQ”: the protein production entry is given as “failed”.

As for “MSTPTAADRAKALERKNEGNVFVKEKHFLKAIEKYTEAIDLDSTQSIYFSNRAFAHFKVDNFQSALNDCDEAIKLDPKNIKAYHRRALSCMALLEFKKARKDLNVLLKAKPNDPAATKALLTCDRFIREERFRKAIGGAENEAKISLCQTLNLSSFDANADLANYEGPKLEFEQLYDDKNAFKGAKIKNMSQEFISKMVNDLFLKGKYLPKKYVAAIISHADTLFRQEPSMVELENNSTPDVKISVCGDTHGQFYDVLNLFRKFGKVGPKHTYLFNGDFVDRGSWSCEVALLFYCLKILHPNNFFLNRGNHESDNMNKIYGFEDECKYKYSQRIFNMFAQSFESLPLATLINNDYLVMHGGLPSDPSATLSDFKNIDRFAQPPRDGAFMELLWADPQEANGMGPSQRGLGHAFGPDITDRFLRNNKLRKIFRSHELRMGGVQFEQKGKLMTVFSAPNYCDSQGNLGGVIHVVPGHGILQAGRNDDQNLIIETFEAVEHPDIKPMAYSNGGFGL”, the protein production entry is “not failed”.

With “MSTQDERQINTEYAVSLLEQLKLFYEQQLFTDIVLIVEGTEFPCHKMVLATCSSYFRAMFMSGLSESKQTHVHLRNVDAATLQIIITYAYTGNLAMNDSTVEQLYETACFLQVEDVLQRCREYLIKKINAENCVRLLSFADLFSCEELKQSAKRMVEHKFTAVYHQVAFMQLSHDLLIDIFSSDNLNVEKEETVREAAMLWLEYNTESRSQYLSSVLSQIRIDALSEVTQRAWFQGLPPNDKSVVVQGLYKSMPKFFKPRLGMTKEEMMIFIEASSENPCSLYSSVCYSPQAEKVYKLCSPPADLHKVGTVVTPDNDIYIAGGQVPLEKHKNKSQ”, the protein production entry is listed as “failed”.

In the case of “MSTQSEAILEENLLKQLVSLGYEKVLIRDEAELLANLKAQLERHNKITLDDMEFSRILNHLNKGNVFEKAKILRDKFALTREDGTTKYIEFLDTERWCQNLFQVTHQVTIEGSYKNRYDVTILINGLPLVQIELKRRGLELKEAFNQINRYQRHSYGANSALFHYVQIFVISNGVNTKYYANNRNQSFKQTFFWADKENKNITNLNEFTDLFLEPCHISKMICKYVVLAEATKTLMILRPYQYHATEAIIDRVVNTNKNGYIWHTTGSGKTLTSFKTAQILMKLPNVHKVVFVVDRKDLDYQTTKEFNSFSQGSVDGTDNTASLVRQFSDDTRLIVTTIQKLNTAINKQRYLEKMKNLRDKRIVFIFDECHRSQFGDTHRNITKFFNNYQMIGFTGTPIFADNATGNKFGKRTTKELFDECLHKYVITDAIADENVLKFSVEYIGRYKEREGSQNNLDIEVEDIDTKELLESPERLEKIVDYIIAHHDRKTHSKEFTAMMCVSSVDVLTKYYELFRSKQHGLKIATIFSYSTNEDDKDANGLDSLEESDGAHVDEEHINMHSRDKLEEYIAHYNTMFGTNFTTKDSQSFYNYYNDISKRVKNQEVDILLVVNMFLTGFDSKTLNTLYVDKNLKYHGLIQAFSRTNRILNEKKSQGNILCFRNLKKATDAAIALFSNKNAKEIILMKSYEEYVEKFIEALKKLKEIAPTIDSVDSLYDEESKLEFIKAFRELMRIQNILGSFADFSFADLGIAEQEFEEYKSKYLDIHDTIKREGKEKVSILEDVDFELELIHKDEINVTYILKLLAQLKDASEQEHQTQRQNIINIINGNAQLRSKRELIERFIDAHLMSLEDIDMVDGAFEKFWNEEKLKAFDALCEEENLNKEKVKKVVDTYLYDERPPLSDDIANTLNIKPKLLERRKVVPRVLDKIMTFVDRFYT”, the protein production entry is reported as “failed”.

As for “MSTRSMSAPANATVADVAAGDAIRSLDPSIRAVWAIKMAAFSMFLFLPALFYDLTHLFSPDSWLPFGVLSGTVLVGGVLYCVAWPRLRYRAWGFVLRPEELYMEHGVLQHVRTIVPLRRIQHVDVSQDLIEREFALGRLVVHTAGSRSSDVVIPGLPLSEAETIRDKIKRFILEDPLTEEPV”, the protein production entry is given as “failed”.

As for “MSTTALVGTGHRPTIVLVGHGMVGQRFLEALAERGLTATHRVVVLCEEPRPAYDRVQLTSYFSGTTPDELSMTDAEFITEHGIDLRLGDPAETVDREARTVTARSGLVIAYDTLVLATGSYPFVPPVPGKDAEGCFVYRTIEDLLAIEAYAKSRATTGAVVGGGLLGLEAAGALKGLGLTSHIVEFAPRLMPVQVDAGGGAALLRTIEDMGLTVHTGTGTQEIVTGDDGAVTGMKLSDGSELATDLVVFSAGVRPRDQLARDCGLPVGERGGIAVDAQCRTEDPHVFAIGECALAADGRVYGLVAPGYEMAETAAATIASADSSFTGADLSTKLKLLGVDVASFGDAHGATAGCLDVVYADSRSGTYKKLVIGRDGELLGGILVGDADAYGTLRALTGSVPPVSPEQLVLPAGGGGGVALGPSALPDSAVICSCHNVTKGAIRGAVTEHSCTTLPEVKKCTKAGTGCGSCVKVLGQLVNDELTASGVEVDHGLCGCFTQTREELYEIVLALRITSYRSLLDRYGREGARGGDGCEVCKPTVGSIIASLAPTIGANGYVLDGEQSALQDTNDHFLANLQKNGSYSIVPRIPGGEITPEKLIVIGEVARDFGLYTKITGGQRIDLFGARVEQLPLIWTRLVDAGFESGHAYGKSLRTVKSCVGQSWCRYGVQDSVRMAIDLELRYRGLRSPHKLKSAVSGCARECAEAQSKDFGIIATANGWNLYVGGNGGATPRHADLLAQDLSDAELVRLIDRFLMFYIRTADRLERTSVWLERIPGGLDHIRDVVVHDSLGICEELESLMTAHVANYRDEWTETINDPEKLARFVSFVNAPDTPDPVVGFVPERDQIKPDLPLLTIGHRPLEGSAQR”, the protein production entry is recorded as “failed”.

As to “MSTTGDSAPQISGTAESAKECADWQALLERIPYAQHLGLEVQRGDVGVLVHLPCREALIGNFMLPALHGGVLGALIELTARVAAQSQDAETRCPRILDSHINYLRSAKARSTFARADIIRQGRRTSLVQVTCWQGDDKKPIATGQVQLLLPTMAAQQEDRHGH”, the protein production result is on record as “failed”.

Take “MSTTQLKVKEINEELDSRPAVPPINDIRSYIAALEAHGVLHRVKAEVDWKFELAHISKVNEEQKGPALLYENVKGNTIPVFTSAFTTPERIAICLEQDPSLSMCQLSRKWMELTTKQMIKPTFVKNPPVMENIIEEKDVDLENFPAPWFYPDDGGRFFGTSGYLVTQDPDTGWTNLGTYRSQILGKNILGSQIISGKHGDFHMKKYQERGEKMPVAYVVGGDPILFLASSTLVSAQTDEYDVGGALRGRPIEVFKSDLTGLTLPANAEIIVEGWMDPEELMEEGPFGEYTGYYSGNKMKDYPKPVIRVKRIIHRNKPIFWSTTVGKPINDTHMVQSINRTATLWHDLETMKVPGIQSVYFPAAATGRFWVVASVKQMYPGHSNHVADAINGSTTGHYGVKGIIIVDHDIAADDMDRVWWALAVRFDPKRSTQIITRGRSTPLDPGLPIEARDVVSRIILDATIPYEWKNKPNEIFMDRTVLQKVSDRWNEYGFTGASPVAEMIPRLTRPEVKKK”: the protein production result is reported as “failed”.

For the sequence “MSTTYYWLCLLASIVFEVAGTSVMKLSQETWPLLGMGCMYLLLGLSYFFLARAVVKLPVGVAYAFWEGLGLTLITIVSVTLLDERLDAMRLAALGMVLAGTLLVHHGTAHGRDDEEAEAASGGEGRI”, the protein production entry is reported as “failed”.

Turning to “MSTYLIGDIHGCLDELLALLAQVNFDPQQDTLWLTGDLVARGPASLDVLRYVRSLGPAVRMVLGNHDLHLLAVYAGISRNKPKDRITPLLDAPDADELINWLRRQPVLQVDDQLKLIMAHAGITPQWDIETAKMCAREVEAVLSSDSYPLFLDAMYGDMPNNWSPELTGLARLRFSTNALTRMRFCFPNGQLDMICKDTPENAPAPLKPWFDLPRLVDPEYSIIFGHWASLEGKGVPEGIYGLDTGCCWGGDLTLLRWDDKRYFTQRAFKAEAEINNNNGFAAGEAVQH”, the protein production result is recorded as “failed”.

On to “MSTYYNDHLAAAEKDISSSNFCNLVDASVMLYDEEHRDLLPKKVNSRCQAKTKKQEKESDKRFFDLFPKKRRTSVVTVRNPEQNQQNLHRVSTSSSLLDLNTIPGDSSDPRNELQGLLSSSSSSFLGDYERKTPQNASSSSTLLAEYNTEMANPPNPNSETSLKRKHSDSEPKKAKTPYSWKGREAPEWLVKMMGTMQGSEGPRLIYEKTLTETDVKPVQSRLLMPFNTLIRNDFLTPVELRILLELEDDTDGVGATLVDPWEVKWGVILKKREMKKYSGKGSLNYAIICGWNDIVEANVLEKDDDISIWSFRRGRNGILSFALVLPPPPDMA”, for which the protein production entry is reported as “failed”.

In the case of “MSVAFVPDWLRGKAEVNQETIQRLLEENDQLIRCIVEYQNKGRGNECVQYQHVLHRNLIYLATIADASPTSTSKAME”, the protein production entry was “failed”.

For the origin of these results see a protein production outcome set (Wang et al. 2014).
